“And” between values parts separate entries of the source, which are not always exact repeats. Identical values can stand only once.
Legend:
[1] = target: Protein G of the commercial protein G-based microplate (UniProt P19909); assay: ELISA; sandwich ELISA on commercial protein G-based microplates coated with anti-IFN-α antibody (2 μg/ml); AGP3-biotin 1 μg/ml, 1 hour at room temperature in DMEM/BSA; streptavidin-HRP and ABTS; background absorbance
[2] = target: 8pG receptor: eight tandemly repeated protein G C2 domains fused to an HA epitope and the immunoglobulin C2-type extracellular-transmembrane-cytosolic domains of mouse B7-1 (mB7) (not stated (streptococcal cDNA) | mouse); assay: ELISA; 3.3-biotin (1 μg/ml serially diluted in DMEM/BSA) added to paraformaldehyde-fixed 8pG cell-based microplates, room temperature 1 hour; streptavidin-HRP and ABTS, absorbance 405 nm

| background OD 405 [1] | fold absorbance over the commercial protein G-based microplate, 0.01 ug/mL 3.3-biotin [2] [fold] | fold absorbance over the commercial protein G-based microplate, 0.04 ug/mL 3.3-biotin [2] [fold] | fold absorbance over the commercial protein G-based microplate, 0.11 ug/mL 3.3-biotin [2] [fold] | fold absorbance over the commercial protein G-based microplate, 1 ug/mL 3.3-biotin [2] [fold] | fold absorbance over the traditional polystyrene-based microplate, 0.01 ug/mL 3.3-biotin [2] [fold] | fold absorbance over the traditional polystyrene-based microplate, 0.04 ug/mL 3.3-biotin [2] [fold] | fold absorbance over the traditional polystyrene-based microplate, 0.11 ug/mL 3.3-biotin [2] [fold] | fold absorbance over the traditional polystyrene-based microplate, 1 ug/mL 3.3-biotin [2] [fold] | other [2] | Substance |
| --- | --- | --- | --- | --- | --- | --- | --- | --- | --- | --- |
| 1.29 |  |  |  |  |  |  |  |  |  | Biotin-conjugated monoclonal mouse anti-PEG IgM antibody AGP3 |
|  | 6.8 | 6.2 | 2.7 | 1.2 | 23 | 12.4 | 8.8 | 1.5 | 1.6 fold and 4.3 fold | Biotin-conjugated monoclonal mouse anti-PEG antibody 3.3 (IgG type) |

— paper PMC6294806
